Residue numbers refer to the chain shown, from its start.
B1: NRC3_wobSeed99_DR4_G27A_o1 (dsDNA)
DNA 1: GCTCTCGGAGGACACGAAAGGTCAGAACTCGACATCGCGATTGACAGCGTAGAATGAAGG
DNA 2: CCTTCATTCTACGCTGTCAATCGCGATGTCGAGTTCTGACCTTTCGTGTCCTCCGAGAGC
B2: NRC3_wobSeed40_DR1_T15C_o1 (dsDNA)
DNA 1: GCTAGCCTAGGTCACGGGCCAGTATACCACGCGAACGCGATTGACAGCGTAGAATGAAGG
DNA 2: CCTTCATTCTACGCTGTCAATCGCGTTCGCGTGGTATACTGGCCCGTGACCTAGGCTAGC
B3: NRC3_wobSeed109_DR4_G17A_o1 (dsDNA)
DNA 1: GCCGTCCAAGGTCATAAGAGGTCAGTGAAGACAGATGCGATTGACAGCGTAGAATGAAGG
DNA 2: CCTTCATTCTACGCTGTCAATCGCATCTGTCTTCACTGACCTCTTATGACCTTGGACGGC
B4: NRC3_wobSeed5_DR0_G23T_o1 (dsDNA)
DNA 1: GCCCTTACGGGTCAAGGTTATATCACGGGTGGTACGGCGATTGACAGCGTAGAATGAAGG
DNA 2: CCTTCATTCTACGCTGTCAATCGCCGTACCACCCGTGATATAACCTTGACCCGTAAGGGC
B5: NRC3_wobSeed5_DR0_T19A_o1 (dsDNA)
DNA 1: B4 DNA 1 with T19A, T23G
DNA 2: B4 DNA 2 with A38C, A42T
B6: NRC3_wobSeed85_DR3_G17T_o1 (dsDNA)
DNA 1: GCCGTCCAAGGTCAGATAGGTCAGTGAATGCCGAGTGCGATTGACAGCGTAGAATGAAGG
DNA 2: CCTTCATTCTACGCTGTCAATCGCACTCGGCATTCACTGACCTATCTGACCTTGGACGGC
B7: NRC3_wobSeed73_DR3_A23G_o1 (dsDNA)
DNA 1: GCCAAACTAGGTCACAGAGGTCGAAGTCCGTGCGTAGCGATTGACAGCGTAGAATGAAGG
DNA 2: CCTTCATTCTACGCTGTCAATCGCTACGCACGGACTTCGACCTCTGTGACCTAGTTTGGC
B8: NRC3_wobSeed121_DR5_G21A_o1 (dsDNA)
DNA 1: GCCAAACTAGGTCACCGGAAAGTCAAAGTCCGCATGGCGATTGACAGCGTAGAATGAAGG
DNA 2: CCTTCATTCTACGCTGTCAATCGCCATGCGGACTTTGACTTTCCGGTGACCTAGTTTGGC
B9: NRC3_wobSeed58_DR2_A22T_o1 (dsDNA)
DNA 1: GCATCGAAAGGTCGTGAGGTGTGTATACAGAAAGGCGCGATTGACAGCGTAGAATGAAGG
DNA 2: CCTTCATTCTACGCTGTCAATCGCGCCTTTCTGTATACACACCTCACGACCTTTCGATGC
B10: NRC3_wobSeed74_DR3_C13T_o1 (dsDNA)
DNA 1: GCTCTAGTTGGTTACGGAGGTCACACACGACGGGTAGCGATTGACAGCGTAGAATGAAGG
DNA 2: CCTTCATTCTACGCTGTCAATCGCTACCCGTCGTGTGTGACCTCCGTAACCAACTAGAGC
B11: NRC3_wobSeed125_DR5_A7G_o1 (dsDNA)
DNA 1: GCCCTTGCGGGTCACTGACAGGTTATAGCATTTGGAGCGATTGACAGCGTAGAATGAAGG
DNA 2: CCTTCATTCTACGCTGTCAATCGCTCCAAATGCTATAACCTGTCAGTGACCCGCAAGGGC
B12: NRC3_wobSeed2_DR0_T12C_o1 (dsDNA)
DNA 1: GCCCTAGTTGGCCAAGGTCACACACGCTATAGGTACGCGATTGACAGCGTAGAATGAAGG
DNA 2: CCTTCATTCTACGCTGTCAATCGCGTACCTATAGCGTGTGTGACCTTGGCCAACTAGGGC
B13: NRC3_wobSeed98_DR4_G11T_o1 (dsDNA)
DNA 1: GCACTAGTTGTTCAGCTGAGGTCACACACAATTCGGGCGATTGACAGCGTAGAATGAAGG
DNA 2: CCTTCATTCTACGCTGTCAATCGCCCGAATTGTGTGTGACCTCAGCTGAACAACTAGTGC
B14: NRC3_wobSeed6_DR0_T22C_o1 (dsDNA)
DNA 1: GCCCTAGCAGGCCAGGGTCACCCAAGCATTTCGCTTGCGATTGACAGCGTAGAATGAAGG
DNA 2: CCTTCATTCTACGCTGTCAATCGCAAGCGAAATGCTTGGGTGACCCTGGCCTGCTAGGGC
B15: NRC3_wobSeed9_DR0_T17G_o1 (dsDNA)
DNA 1: GCATCTCTAGGTAAAGGTCAGTGAAAGATCGATAGAGCGATTGACAGCGTAGAATGAAGG
DNA 2: CCTTCATTCTACGCTGTCAATCGCTCTATCGATCTTTCACTGACCTTTACCTAGAGATGC
B16: NRC3_wobSeed10_DR0_G6C_o1 (dsDNA)
DNA 1: GCATCCAAAGGTCGAGGTGAGTATAGAGAAAGGGAAGCGATTGACAGCGTAGAATGAAGG
DNA 2: CCTTCATTCTACGCTGTCAATCGCTTCCCTTTCTCTATACTCACCTCGACCTTTGGATGC
B17: NRC3_wobSeed43_DR1_C8A_o1 (dsDNA)
DNA 1: GCCCAGAAAGGTGAAAGGTAACTCAGTCTGGTACGCGCGATTGACAGCGTAGAATGAAGG
DNA 2: CCTTCATTCTACGCTGTCAATCGCGCGTACCAGACTGAGTTACCTTTCACCTTTCTGGGC
B18: NRC3_wobSeed36_DR1_T25C_o1 (dsDNA)
DNA 1: GCCCGACTGGGGCAAAGGTTACCACACTCAGTACGAGCGATTGACAGCGTAGAATGAAGG
DNA 2: CCTTCATTCTACGCTGTCAATCGCTCGTACTGAGTGTGGTAACCTTTGCCCCAGTCGGGC
B19: NRC3_wobSeed117_DR4_G26T_o1 (dsDNA)
DNA 1: GCCGTCAAAGTTCAACTAAGGTAACTTAAAGCACGCGCGATTGACAGCGTAGAATGAAGG
DNA 2: CCTTCATTCTACGCTGTCAATCGCGCGTGCTTTAAGTTACCTTAGTTGAACTTTGACGGC
B20: NRC3_wobSeed117_DR4_G20T_o1 (dsDNA)
DNA 1: B19 DNA 1 with G20T, T26G
DNA 2: B19 DNA 2 with A35C, C41A
B21: NRC3_wobSeed142_DR5_G13T_o1 (dsDNA)
DNA 1: GCATACCAAGGTTATCGTGAGGTCGTTGATACTAACGCGATTGACAGCGTAGAATGAAGG
DNA 2: CCTTCATTCTACGCTGTCAATCGCGTTAGTATCAACGACCTCACGATAACCTTGGTATGC
B22: NRC3_wobSeed30_DR1_G7A_o1 (dsDNA)
DNA 1: GCACTAACAGGCCAAGGGTCACTCAAGATTAGTCCGGCGATTGACAGCGTAGAATGAAGG
DNA 2: CCTTCATTCTACGCTGTCAATCGCCGGACTAATCTTGAGTGACCCTTGGCCTGTTAGTGC
B23: NRC3_wobSeed13_DR0_G17C_o1 (dsDNA)
DNA 1: GCCGTCCAAGGTCAAGCTCAGTGAAAGAGACTCGAAGCGATTGACAGCGTAGAATGAAGG
DNA 2: CCTTCATTCTACGCTGTCAATCGCTTCGAGTCTCTTTCACTGAGCTTGACCTTGGACGGC
B24: NRC3_wobSeed13_DR0_C19G_o1 (dsDNA)
DNA 1: B23 DNA 1 with C17G, C19G
DNA 2: B23 DNA 2 with G42C, G44C
B25: NRC3_wobSeed138_DR5_T5C_o1 (dsDNA)
DNA 1: GCGACACAGGGTCAGCTAGAGGCCAGAGTATGGAAAGCGATTGACAGCGTAGAATGAAGG
DNA 2: CCTTCATTCTACGCTGTCAATCGCTTTCCATACTCTGGCCTCTAGCTGACCCTGTGTCGC
B26: NRC3_wobSeed138_DR5_A6C_o1 (dsDNA)
DNA 1: B25 DNA 1 with C5T, A6C
DNA 2: B25 DNA 2 with T55G, G56A
B27: NRC3_wobSeed17_DR0_A24T_o1 (dsDNA)
DNA 1: GCATATGTAGGTTAGGGTCATTCTGAAAGTAGGGAAGCGATTGACAGCGTAGAATGAAGG
DNA 2: CCTTCATTCTACGCTGTCAATCGCTTCCCTACTTTCAGAATGACCCTAACCTACATATGC
B28: NRC3_wobSeed93_DR3_A8G_o1 (dsDNA)
DNA 1: GCAGTCAGAGTTCATCTAGGTAACGTAAGATATGCTGCGATTGACAGCGTAGAATGAAGG
DNA 2: CCTTCATTCTACGCTGTCAATCGCAGCATATCTTACGTTACCTAGATGAACTCTGACTGC
B29: NRC3_wobSeed93_DR3_A18T_o1 (dsDNA)
DNA 1: B28 DNA 1 with G8A, A18T
DNA 2: B28 DNA 2 with T43A, C53T
B30: NRC3_wobSeed66_DR2_A22C_o1 (dsDNA)
DNA 1: GCAATACAGGGTCACTAGGCCCGAGTAGGTACGAATGCGATTGACAGCGTAGAATGAAGG
DNA 2: CCTTCATTCTACGCTGTCAATCGCATTCGTACCTACTCGGGCCTAGTGACCCTGTATTGC
B31: NRC3_wobSeed130_DR5_T15A_o1 (dsDNA)
DNA 1: GCCTCGAAAGGTCGAGCTCAGGTGAGTATACCAAACGCGATTGACAGCGTAGAATGAAGG
DNA 2: CCTTCATTCTACGCTGTCAATCGCGTTTGGTATACTCACCTGAGCTCGACCTTTCGAGGC
B32: NRC3_wobSeed136_DR5_T27A_o1 (dsDNA)
DNA 1: GCTAGCCTAGGTCATTCAGGGGCCAGAATAGAAAGCGCGATTGACAGCGTAGAATGAAGG
DNA 2: CCTTCATTCTACGCTGTCAATCGCGCTTTCTATTCTGGCCCCTGAATGACCTAGGCTAGC
B33: NRC3_wobSeed28_DR1_T22G_o1 (dsDNA)
DNA 1: GCCCTACTGGGCCAAAGGTCAGTGATTCCAATGCTCGCGATTGACAGCGTAGAATGAAGG
DNA 2: CCTTCATTCTACGCTGTCAATCGCGAGCATTGGAATCACTGACCTTTGGCCCAGTAGGGC

Target: RARa:RXRa (Homo sapiens, UniProt P10276;P19793 full;full)
Assay: no ligand; PBM; 270 nM : 90 nM RXRa; PBS pH 7.4, 2% milk, 0.02% Triton X-100, 1 mM DTT, BSA, 0.4 mg/ml salmon testes DNA
Conditions: tags: His kept;His cleaved; copies: 1;1; label: surface-attached array probe
Outline: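 Custom Agilent 4×180K protein-binding microarrays carried double-stranded probes, each with a 34-nt variable region. These regions held direct-repeat seeds, single-nucleotide variants, half-site ablations and random human genomic background sequences. Ligand-free nuclear receptor dimers were incubated on the arrays for 1 h, antibodies against each partner (one per run) detected binding, and scanned fluorescence was regression-normalized. Binding z-scores take the random background probes as reference.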

RARa:RXRa, sequence (P10276 whole entry, chain 1 of 2): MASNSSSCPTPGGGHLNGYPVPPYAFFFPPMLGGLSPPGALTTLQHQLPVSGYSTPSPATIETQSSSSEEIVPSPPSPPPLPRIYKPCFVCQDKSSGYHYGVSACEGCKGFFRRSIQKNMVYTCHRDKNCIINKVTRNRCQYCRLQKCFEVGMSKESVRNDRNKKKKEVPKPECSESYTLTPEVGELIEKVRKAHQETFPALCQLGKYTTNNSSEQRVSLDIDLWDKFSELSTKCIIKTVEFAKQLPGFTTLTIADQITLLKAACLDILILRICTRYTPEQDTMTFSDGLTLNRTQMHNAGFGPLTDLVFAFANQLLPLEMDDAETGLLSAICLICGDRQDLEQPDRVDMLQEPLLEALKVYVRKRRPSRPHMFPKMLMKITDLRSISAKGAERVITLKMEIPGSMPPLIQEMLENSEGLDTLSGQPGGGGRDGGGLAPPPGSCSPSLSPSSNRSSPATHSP
RARa:RXRa, sequence (P19793 whole entry, chain 2 of 2): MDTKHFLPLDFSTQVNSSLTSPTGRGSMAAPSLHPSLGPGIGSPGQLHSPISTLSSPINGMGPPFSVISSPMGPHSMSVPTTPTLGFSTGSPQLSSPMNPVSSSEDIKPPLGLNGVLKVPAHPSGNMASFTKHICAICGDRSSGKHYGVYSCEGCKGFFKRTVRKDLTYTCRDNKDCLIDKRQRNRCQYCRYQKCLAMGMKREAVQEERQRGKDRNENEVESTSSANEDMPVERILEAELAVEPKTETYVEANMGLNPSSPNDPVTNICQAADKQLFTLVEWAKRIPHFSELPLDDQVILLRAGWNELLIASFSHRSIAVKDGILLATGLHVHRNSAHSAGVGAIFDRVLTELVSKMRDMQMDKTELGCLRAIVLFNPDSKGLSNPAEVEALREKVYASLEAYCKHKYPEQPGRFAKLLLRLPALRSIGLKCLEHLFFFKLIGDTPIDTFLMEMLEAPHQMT

Binder	binding signal
B1	4.35 PBM z-score against 500 random probes
B2	3.59 PBM z-score against 500 random probes
B3	7.18 PBM z-score against 500 random probes
B4	4.39 PBM z-score against 500 random probes
B5	3.77 PBM z-score against 500 random probes
B6	4.18 PBM z-score against 500 random probes
B7	4.06 PBM z-score against 500 random probes
B8	3.41 PBM z-score against 500 random probes
B9	4.09 PBM z-score against 500 random probes
B10	4.41 PBM z-score against 500 random probes
B11	4.21 PBM z-score against 500 random probes
B12	3.86 PBM z-score against 500 random probes
B13	4.63 PBM z-score against 500 random probes
B14	3.89 PBM z-score against 500 random probes
B15	4.31 PBM z-score against 500 random probes
B16	3.47 PBM z-score against 500 random probes
B17	3.8 PBM z-score against 500 random probes

Binder	binding signal
B18	3.7 PBM z-score against 500 random probes
B19	4.28 PBM z-score against 500 random probes
B20	4.13 PBM z-score against 500 random probes
B21	3.65 PBM z-score against 500 random probes
B22	4.53 PBM z-score against 500 random probes
B23	4.6 PBM z-score against 500 random probes
B24	4.49 PBM z-score against 500 random probes
B25	4.25 PBM z-score against 500 random probes
B26	4.15 PBM z-score against 500 random probes
B27	4.56 PBM z-score against 500 random probes
B28	3.62 PBM z-score against 500 random probes
B29	3.45 PBM z-score against 500 random probes
B30	3.99 PBM z-score against 500 random probes
B31	3.92 PBM z-score against 500 random probes
B32	3.51 PBM z-score against 500 random probes
B33	4.44 PBM z-score against 500 random probes
